The chains are these.
B1: Retinoic acid receptor RXR-alpha, residues 132 to 208; numbered along this chain, P19793 (parent)
chain: KHICAICGDRSSGKHYGVYSCEGCKGFFKRTVRKDLTYTCRDNKDCLIDKRQRNRCQYCRYQKCLAMGMKREAVQEE

± gives the uncertainty stated by the source.

In the data set the parent is B1. Description: abundance fitness (aPCA) (normalised: wild type 0, dead -1); higher = more abundant; growth selection in yeast, the domain comes from the species named. As to conditions: Homo sapiens.
As to KHICAICGDRSSGKHYGVYSCEGPKGFFKRTVRKDLTYTCRDNKDCLIDKRQRNRCQYCRYQKCLAMGMKREAVQEE [C24P], the abundance fitness was -0.904 ± 0.082.

As to KHICAICGDRSSGKHYGVYSCEGHKGFFKRTVRKDLTYTCRDNKDCLIDKRQRNRCQYCRYQKCLAMGMKREAVQEE [C24H], the abundance fitness was -0.971 ± 0.095.

Regarding KHICAICGDRSSGKHYGVYSCEGQKGFFKRTVRKDLTYTCRDNKDCLIDKRQRNRCQYCRYQKCLAMGMKREAVQEE [C24Q], the abundance fitness is -0.891 ± 0.087.

KHICAICGDRSSGKHYGVYSCEGNKGFFKRTVRKDLTYTCRDNKDCLIDKRQRNRCQYCRYQKCLAMGMKREAVQEE [C24N]: the abundance fitness is -1.18 ± 0.11.

In the case of KHICAICGDRSSGKHYGVYSCEGFKGFFKRTVRKDLTYTCRDNKDCLIDKRQRNRCQYCRYQKCLAMGMKREAVQEE [C24F], the abundance fitness was -0.889 ± 0.074.

On to KHICAICGDRSSGKHYGVYSCEGIKGFFKRTVRKDLTYTCRDNKDCLIDKRQRNRCQYCRYQKCLAMGMKREAVQEE [C24I], for which the abundance fitness is -0.987 ± 0.074.

Take KHICAICGDRSSGKHYGVYSCEGEKGFFKRTVRKDLTYTCRDNKDCLIDKRQRNRCQYCRYQKCLAMGMKREAVQEE [C24E]: the abundance fitness was -0.559 ± 0.045.

Consider KHICAICGDRSSGKHYGVYSCEGAKGFFKRTVRKDLTYTCRDNKDCLIDKRQRNRCQYCRYQKCLAMGMKREAVQEE [C24A], for which the abundance fitness was -0.875 ± 0.051.

In the case of KHICAICGDRSSGKHYGVYSCEGMKGFFKRTVRKDLTYTCRDNKDCLIDKRQRNRCQYCRYQKCLAMGMKREAVQEE [C24M], the abundance fitness was -1.18 ± 0.11.

Consider KHICAICGDRSSGKHYGVYSCEGGKGFFKRTVRKDLTYTCRDNKDCLIDKRQRNRCQYCRYQKCLAMGMKREAVQEE [C24G], for which the abundance fitness is -0.945 ± 0.046.

On to KHICAICGDRSSGKHYGVYSCEGKKGFFKRTVRKDLTYTCRDNKDCLIDKRQRNRCQYCRYQKCLAMGMKREAVQEE [C24K], for which the abundance fitness is -1.15 ± 0.11.

On to KHICAICGDRSSGKHYGVYSCEGLKGFFKRTVRKDLTYTCRDNKDCLIDKRQRNRCQYCRYQKCLAMGMKREAVQEE [C24L], for which the abundance fitness is -1.01 ± 0.058.

Take KHICAICGDRSSGKHYGVYSCEGDKGFFKRTVRKDLTYTCRDNKDCLIDKRQRNRCQYCRYQKCLAMGMKREAVQEE [C24D]: the abundance fitness was -0.049 ± 0.033.

Turning to KHICAICGDRSSGKHYGVYSCEGRKGFFKRTVRKDLTYTCRDNKDCLIDKRQRNRCQYCRYQKCLAMGMKREAVQEE [C24R], the abundance fitness is -0.958 ± 0.048.

Consider KHICAICGDRSSGKHYGVYSCGGCKGFFKRTVRKDLTYTCRDNKDCLIDKRQRNRCQYCRYQKCLAMGMKREAVQEE [E22G], for which the abundance fitness was 0.031 ± 0.028.

With KHICAICGDRSSGKHYGVYSCYGCKGFFKRTVRKDLTYTCRDNKDCLIDKRQRNRCQYCRYQKCLAMGMKREAVQEE [E22Y], the abundance fitness is -0.135 ± 0.057.

Take KHICAICGDRSSGKHYGVYSCMGCKGFFKRTVRKDLTYTCRDNKDCLIDKRQRNRCQYCRYQKCLAMGMKREAVQEE [E22M]: the abundance fitness was -0.136 ± 0.05.

Turning to KHICAICGDRSSGKHYGVYSCPGCKGFFKRTVRKDLTYTCRDNKDCLIDKRQRNRCQYCRYQKCLAMGMKREAVQEE [E22P], the abundance fitness was -0.037 ± 0.048.

Take KHICAICGDRSSGKHYGVYSCHGCKGFFKRTVRKDLTYTCRDNKDCLIDKRQRNRCQYCRYQKCLAMGMKREAVQEE [E22H]: the abundance fitness was -0.104 ± 0.06.

With KHICAICGDRSSGKHYGVYSCKGCKGFFKRTVRKDLTYTCRDNKDCLIDKRQRNRCQYCRYQKCLAMGMKREAVQEE [E22K], the abundance fitness worked out at 0.015 ± 0.045.

Consider KHICAICGDRSSGKHYGVYSCVGCKGFFKRTVRKDLTYTCRDNKDCLIDKRQRNRCQYCRYQKCLAMGMKREAVQEE [E22V], for which the abundance fitness was -0.053 ± 0.033.

As to KHICAICGDRSSGKHYGVYSCQGCKGFFKRTVRKDLTYTCRDNKDCLIDKRQRNRCQYCRYQKCLAMGMKREAVQEE [E22Q], the abundance fitness was -0.094 ± 0.043.

In the case of KHICAICGDRSSGKHYGVYSCSGCKGFFKRTVRKDLTYTCRDNKDCLIDKRQRNRCQYCRYQKCLAMGMKREAVQEE [E22S], the abundance fitness was -0.063 ± 0.035.

As to KHICAICGDRSSGKHYGVYSCIGCKGFFKRTVRKDLTYTCRDNKDCLIDKRQRNRCQYCRYQKCLAMGMKREAVQEE [E22I], the abundance fitness was -0.011 ± 0.051.

On to KHICAICGDRSSGKHYGVYSCCGCKGFFKRTVRKDLTYTCRDNKDCLIDKRQRNRCQYCRYQKCLAMGMKREAVQEE [E22C], for which the abundance fitness is -0.043 ± 0.053.

In the case of KHICAICGDRSSGKHYGVYSCNGCKGFFKRTVRKDLTYTCRDNKDCLIDKRQRNRCQYCRYQKCLAMGMKREAVQEE [E22N], the abundance fitness is -0.079 ± 0.066.

For the variant KHICAICGDRSSGKHYGVYSCWGCKGFFKRTVRKDLTYTCRDNKDCLIDKRQRNRCQYCRYQKCLAMGMKREAVQEE [E22W], the abundance fitness is -0.007 ± 0.035.

As to KHICAICGDRSSGKHYGVYSCDGCKGFFKRTVRKDLTYTCRDNKDCLIDKRQRNRCQYCRYQKCLAMGMKREAVQEE [E22D], the abundance fitness is -0.062 ± 0.051.

In the case of KHICAICGDRSSGKHYGVYSCAGCKGFFKRTVRKDLTYTCRDNKDCLIDKRQRNRCQYCRYQKCLAMGMKREAVQEE [E22A], the abundance fitness is -0.048 ± 0.033.

Consider KHICAICGDRSSGKHYGVYSCFGCKGFFKRTVRKDLTYTCRDNKDCLIDKRQRNRCQYCRYQKCLAMGMKREAVQEE [E22F], for which the abundance fitness is -0.097 ± 0.064.

On to KHICAICGDRSSGKHYGVYSCRGCKGFFKRTVRKDLTYTCRDNKDCLIDKRQRNRCQYCRYQKCLAMGMKREAVQEE [E22R], for which the abundance fitness is -0.002 ± 0.031.

On to KHICAICGDRSSGKHYGVYYCEGCKGFFKRTVRKDLTYTCRDNKDCLIDKRQRNRCQYCRYQKCLAMGMKREAVQEE [S20Y], for which the abundance fitness is -0.025 ± 0.03.

As to KHICAICGDRSSGKHYGVYRCEGCKGFFKRTVRKDLTYTCRDNKDCLIDKRQRNRCQYCRYQKCLAMGMKREAVQEE [S20R], the abundance fitness was -0.571 ± 0.029.

As to KHICAICGDRSSGKHYGVYVCEGCKGFFKRTVRKDLTYTCRDNKDCLIDKRQRNRCQYCRYQKCLAMGMKREAVQEE [S20V], the abundance fitness came out at 0.035 ± 0.024.

Turning to KHICAICGDRSSGKHYGVYQCEGCKGFFKRTVRKDLTYTCRDNKDCLIDKRQRNRCQYCRYQKCLAMGMKREAVQEE [S20Q], the abundance fitness came to 0.012 ± 0.035.

Values taken from the Human Domainome abundance scans (Beltran et al. 2025).
